Starred links: 1 amine or outer side, 2 acyl side, 3 side chain; linkers in the order of their positions; H or OH if unused. Non-standard residues stand in square brackets, D forms with d. *: point of attachment. BFL = BODIPY FL (diaminoethyl-BODIPY FL label), CC1=CC(C)=[N+]2C1=Cc1ccc(CCC(=O)NCCN*)n1[B-]2(F)F; diaminoethyl = diaminoethyl linker to BODIPY FL label; Suc = O=C(CCC(=O)[*:2])[*:1]; Cy5 = Cy5 fluorescent dye; Nle = CCCC[C@H](N)C(=O)O
Assays:
Format in all cases: biochemical
thrombin [1] = target: T1, thrombin (Homo sapiens, UniProt P00734); experiment: Coagulation monitoring: thrombin activity in whole blood of subjects taking anticoagulant vs control
T1 construct: from tissue; host or cells: whole blood of subjects
Procedure: To detect thrombin activity and monitor coagulation, the thrombin targeted charge-changing peptide shown in FIG. 9 (and with the sequence of Ac-N-D^−-D^−-Nle-T-P-R^+//G-S-A-G-A-G-A-G-diamino-ethyl-BFL (SEQ ID NO:1)) was incubated in a drop of whole blood from subjects taking an anticoagulant (aspirin) and from control subjects that were not taking an anticoagulant. Fluorescence signal, indicating specific binding of the peptide to thrombin in the whole blood sample, was measured at various time points up to 30 minutes.

thrombin [2] = target: T1, thrombin; experiment: Thrombin detection using thrombin-specific charge-changing peptide substrate in 1×PBS or citrated blood; conditions: 0-100 nM
Procedure: Various concentrations (0 nM, 0.5 nM, 5 nM, 10 nM, 20 nM, or 100 nM) of the thrombin targeted charge-changing peptide shown in FIG. 9 (and with the sequence Ac-N-D^−-D^−-Nle-T-P-R^+//G-S-A-G-A-G-A-G-diamino-ethyl-BFL (SEQ ID NO:1)) was incubated in either 1×PBS (FIG. 10A) or citrated blood (FIG. 10B), both of which contained thrombin. After incubation, fluorescence was measured, indicating specific binding of the peptide to the thrombin in the sample.

thrombin [3] = target: T1, thrombin; experiment: Whole blood thrombin detection with charge-changing peptide; conditions: untreated whole blood
Procedure: The thrombin targeted charge-changing peptide shown in FIG. 9 (and with the sequence Ac-N-D^−-D^−-Nle-T-P-R^+//G-S-A-G-A-G-A-G-diamino-ethyl-BFL (SEQ ID NO:1)) was incubated in untreated whole blood for up to 33 minutes. A negative control was also prepared See FIG. 11A. Fluorescence was measured at 3 minute intervals during incubation.

cathepsin-S = cathepsin-S (Homo sapiens, UniProt P25774); experiment: Cathepsin-S detection in buffer with charge-changing peptide; conditions: 1×PBS buffer with varying concentrations of cathepsin-S
cathepsin-S, sequence (P25774 115-331, species assumed): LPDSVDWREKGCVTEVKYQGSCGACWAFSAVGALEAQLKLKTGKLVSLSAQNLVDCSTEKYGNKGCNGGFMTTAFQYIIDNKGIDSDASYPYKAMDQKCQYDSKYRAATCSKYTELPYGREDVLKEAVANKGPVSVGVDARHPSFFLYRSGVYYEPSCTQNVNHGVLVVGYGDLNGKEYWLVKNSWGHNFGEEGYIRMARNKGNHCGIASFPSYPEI
Procedure: The cathepsin-S targeted charge-changing peptide shown in FIG. 9 (and with the sequence N-SUC^−-E^−-G-R^+-W-H-T-V-G//L-R^+-W-E^−-C(Cy5^−)-R^+CO-NH2 (SEQ ID NO:5)) was incubated in 1×PBS buffer with varying concentrations of cathepsin-S. After incubation, fluorescence was measured, indicating specific binding of the peptide to the cathepsin-S in the sample.

CC(=O)Oc1ccccc1C(=O)O [aspirin, reference compound]
Rate of fluorescence increase (thrombin activity), anticoagulant subjects vs control (thrombin [1]; whole blood from subjects taking aspirin vs subjects not taking an anticoagulant, up to 30 minutes): more quickly in the control group

Ac-N-D^−-D^−-Nle-T-P-R^+//G-S-A-G-A-G-A-G-diamino-ethyl-BFL (Ac-NDD[Nle]TPRGSAGAGAG-{diaminoethyl-BFL}) [SEQ ID NO:1, thrombin targeted charge-changing fluorescent peptide substrate]
Fluorescence after incubation (thrombin [2]; 1×PBS containing thrombin): Fluorescence increased with increasing thrombin concentration | Fluorescence after incubation (thrombin [2]; citrated blood containing thrombin): Fluorescence increased with increasing thrombin concentration | Time of peak fluorescence values (thrombin [3]; incubation up to 33 minutes): about 18 minutes | Fluorescence signal during incubation (thrombin [3]; up to 33 minutes, measured at 3 minute intervals): increased over time | Fluorescence signal (thrombin activity) over time (thrombin [1]; drop of whole blood, time points up to 30 minutes, both subject groups): increased in both subject groups over time

N-SUC^−-E^−G-R^+-W-H-T-V-G//L-R^+-W-E^−-C(Cy5^−)-R^+-CO-NH2 (Suc-EGRWHTVGLRWEC(Cy5)R-NH2) [SEQ ID NO:5, cathepsin-S targeted charge-changing fluorescent peptide substrate]
Fluorescence after incubation (cathepsin-S): Fluorescence increased with increasing cathepsin-S concentration
